Laboratory results as given in the supplement of paper PMC10567573.

B1: CDS2 (parent)
chain: LIVVTQSHLVIHNLFEGMIWFIVP

Variants of: B1
Experiment: protein stability index of a GFP-peptide fusion (GPS, HEK-293T) (PSI 1-6); higher = more stable
Settings: c terminus: a fixed tail appended
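Also: lentivirally expressed fusions sorted by FACS into six bins by GFP to DsRed ratio, PSI derived from sequencing read proportions per bin multiplied by bin number.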

| Variant | protein stability index |
| --- | --- |
| LIVVTQSHLVRHNLFEGMIWFIVP | 2.2 |
| LIVVTQSHLVVHNLFEGMIWFIVP | 2.52 |
| LIVVTQSHLVWHNLFEGMIWFIVP | 1.04 |
| LIVVTQSHLVSHNLFEGMIWFIVP | 3.42 |
| LIVVTQSHLVFHNLFEGMIWFIVP | 3.51 |
| LIVVTQSHLVEHNLFEGMIWFIVP | 2.39 |
| LIVVTQSHLVHHNLFEGMIWFIVP | 1.57 |
| LIVVTQSHLVNHNLFEGMIWFIVP | 4.03 |
| LIVVTQSHLVMHNLFEGMIWFIVP | 2.84 |
| LIVVTQSHLVLHNLFEGMIWFIVP | 2.48 |
| LIVVTQSHLVKHNLFEGMIWFIVP | 4.09 |
| LIVVTQSHLVCHNLFEGMIWFIVP | 3.04 |
| LIVVTQSHLVGHNLFEGMIWFIVP | 2.27 |
| LIVVTQSHLVDHNLFEGMIWFIVP | 3.58 |
| LIVVTTSHLVIHNLFEGMIWFIVP | 2.85 |
| LIVVTMSHLVIHNLFEGMIWFIVP | 1.77 |
| LIVVTPSHLVIHNLFEGMIWFIVP | 3.21 |
| LIVVTDSHLVIHNLFEGMIWFIVP | 4.07 |
| LIVVTVSHLVIHNLFEGMIWFIVP | 2.76 |
| LIVVTCSHLVIHNLFEGMIWFIVP | 2.42 |
| LIVVTISHLVIHNLFEGMIWFIVP | 2.71 |
| LIVVTESHLVIHNLFEGMIWFIVP | 2.59 |
| LIVVTRSHLVIHNLFEGMIWFIVP | 1.46 |
| LIVVTASHLVIHNLFEGMIWFIVP | 2.85 |

| Variant | protein stability index |
| --- | --- |
| LIVVTSSHLVIHNLFEGMIWFIVP | 2.58 |
| LIVVTLSHLVIHNLFEGMIWFIVP | 4.3 |
| LIVVTNSHLVIHNLFEGMIWFIVP | 3.99 |
| LILVTQSHLVIHNLFEGMIWFIVP | 2.57 |
| LISVTQSHLVIHNLFEGMIWFIVP | 3.43 |
| LIEVTQSHLVIHNLFEGMIWFIVP | 2.45 |
| LIPVTQSHLVIHNLFEGMIWFIVP | 3.31 |
| LIRVTQSHLVIHNLFEGMIWFIVP | 2.14 |
| LINVTQSHLVIHNLFEGMIWFIVP | 2.96 |
| LIKVTQSHLVIHNLFEGMIWFIVP | 3.44 |
| LIYVTQSHLVIHNLFEGMIWFIVP | 2.91 |
| LIQVTQSHLVIHNLFEGMIWFIVP | 2.14 |
| LITVTQSHLVIHNLFEGMIWFIVP | 2.85 |
| LIWVTQSHLVIHNLFEGMIWFIVP | 4.23 |
| LIHVTQSHLVIHNLFEGMIWFIVP | 3.21 |
| LIIVTQSHLVIHNLFEGMIWFIVP | 3.46 |
| LIFVTQSHLVIHNLFEGMIWFIVP | 3.18 |
| LIGVTQSHLVIHNLFEGMIWFIVP | 3.92 |
| LIVVTQSRLVIHNLFEGMIWFIVP | 2.81 |
| LIVVTQSNLVIHNLFEGMIWFIVP | 3.36 |
| LIVVTQSMLVIHNLFEGMIWFIVP | 2.48 |
| LIVVTQSILVIHNLFEGMIWFIVP | 2.81 |
| LIVVTQSELVIHNLFEGMIWFIVP | 2.35 |
| LIVVTQSVLVIHNLFEGMIWFIVP | 4.43 |

| Variant | protein stability index |
| --- | --- |
| LIVVTQSWLVIHNLFEGMIWFIVP | 2.77 |
| LIVVTQSDLVIHNLFEGMIWFIVP | 4.35 |
| LIVVTQSCLVIHNLFEGMIWFIVP | 3.31 |
| LIVVTQSGLVIHNLFEGMIWFIVP | 4.59 |
| LIVVTQSSLVIHNLFEGMIWFIVP | 4.08 |
| LIVVTQSFLVIHNLFEGMIWFIVP | 3.38 |
| LIVVTQSLLVIHNLFEGMIWFIVP | 3.47 |
| LIVVTQSTLVIHNLFEGMIWFIVP | 2.91 |
| LIVFTQSHLVIHNLFEGMIWFIVP | 2.09 |
| LIVQTQSHLVIHNLFEGMIWFIVP | 2.74 |
| LIVCTQSHLVIHNLFEGMIWFIVP | 3.17 |
| LIVMTQSHLVIHNLFEGMIWFIVP | 3.42 |
| LIVTTQSHLVIHNLFEGMIWFIVP | 3.04 |
| LIVGTQSHLVIHNLFEGMIWFIVP | 3.49 |
| LIVWTQSHLVIHNLFEGMIWFIVP | 1.83 |
| LIVPTQSHLVIHNLFEGMIWFIVP | 2.36 |
| LIVDTQSHLVIHNLFEGMIWFIVP | 3.18 |
| LIVKTQSHLVIHNLFEGMIWFIVP | 4.3 |
| LIVNTQSHLVIHNLFEGMIWFIVP | 3.21 |
| LIVSTQSHLVIHNLFEGMIWFIVP | 4.44 |
| LIVRTQSHLVIHNLFEGMIWFIVP | 3.46 |
| LRVVTQSHLVIHNLFEGMIWFIVP | 3.79 |
| LWVVTQSHLVIHNLFEGMIWFIVP | 3.71 |
| LTVVTQSHLVIHNLFEGMIWFIVP | 2.77 |

| Variant | protein stability index |
| --- | --- |
| LKVVTQSHLVIHNLFEGMIWFIVP | 4.33 |
| LLVVTQSHLVIHNLFEGMIWFIVP | 3.84 |
| LGVVTQSHLVIHNLFEGMIWFIVP | 2.41 |
| LSVVTQSHLVIHNLFEGMIWFIVP | 2.69 |
| LHVVTQSHLVIHNLFEGMIWFIVP | 3.16 |
| LVVVTQSHLVIHNLFEGMIWFIVP | 3.01 |
| LMVVTQSHLVIHNLFEGMIWFIVP | 2.66 |
| LIVVTQSHRVIHNLFEGMIWFIVP | 2.9 |
| LIVVTQSHQVIHNLFEGMIWFIVP | 3.56 |
| LIVVTQSHVVIHNLFEGMIWFIVP | 2.3 |
| LIVVTQSHFVIHNLFEGMIWFIVP | 1.48 |
| LIVVTQSHTVIHNLFEGMIWFIVP | 3.82 |
| LIVVTQSHYVIHNLFEGMIWFIVP | 2.24 |
| LIVVTQSHIVIHNLFEGMIWFIVP | 1.84 |
| LIVVTQSHNVIHNLFEGMIWFIVP | 2.36 |
| LIVVTQSHSVIHNLFEGMIWFIVP | 1.96 |
| LIVVTQSHDVIHNLFEGMIWFIVP | 2.62 |
| LIVVTQSHHVIHNLFEGMIWFIVP | 1.56 |
| LIVVTQSHPVIHNLFEGMIWFIVP | 5.08 |
| LIVVTQSHWVIHNLFEGMIWFIVP | 2.91 |
| LIVVTQSHAVIHNLFEGMIWFIVP | 2.29 |
| LIVVTQSHKVIHNLFEGMIWFIVP | 3.33 |
| LIVVTQSHLDIHNLFEGMIWFIVP | 1.79 |
| LIVVTQSHLFIHNLFEGMIWFIVP | 3.01 |

| Variant | protein stability index |
| --- | --- |
| LIVVTQSHLIIHNLFEGMIWFIVP | 4.56 |
| LIVVTQSHLWIHNLFEGMIWFIVP | 2.46 |
| LIVVTQSHLMIHNLFEGMIWFIVP | 2.77 |
| LIVVTQSHLAIHNLFEGMIWFIVP | 3.19 |
| LIVVTQSHLCIHNLFEGMIWFIVP | 2.23 |
| LIVVTQSHLGIHNLFEGMIWFIVP | 1.83 |
| LIVVTQSHLTIHNLFEGMIWFIVP | 2.15 |
| LIVVTQSHLPIHNLFEGMIWFIVP | 1.52 |
| LIVVTQSHLKIHNLFEGMIWFIVP | 2.67 |
| LIVVTQSHLHIHNLFEGMIWFIVP | 2.88 |
| LIVVTQSHLLIHNLFEGMIWFIVP | 1.96 |
| LIVVTQSHLQIHNLFEGMIWFIVP | 4.6 |
| LIVVTQSHLVIHNDFEGMIWFIVP | 3.03 |
| LIVVTQSHLVIHNQFEGMIWFIVP | 2.25 |
| LIVVTQSHLVIHNEFEGMIWFIVP | 2.99 |
| LIVVTQSHLVIHNWFEGMIWFIVP | 2.72 |
| LIVVTQSHLVIHNGFEGMIWFIVP | 3.6 |
| LIVVTQSHLVIHNVFEGMIWFIVP | 2.71 |
| LIVVTQSHLVIHNYFEGMIWFIVP | 3.06 |
| LIVVTQSHLVIHNKFEGMIWFIVP | 3.69 |
| LIVVTQSHLVIHNPFEGMIWFIVP | 2.64 |
| LIVVTQSHLVIHNFFEGMIWFIVP | 2.92 |
| LIVVTQSHLVIHNAFEGMIWFIVP | 1.86 |
| LIVVTQSHLVIHNTFEGMIWFIVP | 3.05 |

| Variant | protein stability index |
| --- | --- |
| LIVVTQSHLVIHNIFEGMIWFIVP | 3.44 |
| LIVVTQSHLVIRNLFEGMIWFIVP | 1.5 |
| LIVVTQSHLVIINLFEGMIWFIVP | 1.85 |
| LIVVTQSHLVILNLFEGMIWFIVP | 3.7 |
| LIVVTQSHLVITNLFEGMIWFIVP | 4.2 |
| LIVVTQSHLVIGNLFEGMIWFIVP | 3.39 |
| LIVVTQSHLVICNLFEGMIWFIVP | 3.91 |
| LIVVTQSHLVIDNLFEGMIWFIVP | 3.58 |
| LIVVTQSHLVIMNLFEGMIWFIVP | 2.67 |
| LIVVTQSHLVIPNLFEGMIWFIVP | 1.35 |
| LIVVTQSHLVIKNLFEGMIWFIVP | 2.6 |
| LIVVTQSHLVIANLFEGMIWFIVP | 3.32 |
| LIVVTQSHLVIHNLLEGMIWFIVP | 2.41 |
| LIVVTQSHLVIHNLNEGMIWFIVP | 3.64 |
| LIVVTQSHLVIHNLPEGMIWFIVP | 2.8 |
| LIVVTQSHLVIHNLMEGMIWFIVP | 4.48 |
| LIVVTQSHLVIHNLKEGMIWFIVP | 3.4 |
| LIVVTQSHLVIHNLIEGMIWFIVP | 3.58 |
| LIVVTQSHLVIHNLQEGMIWFIVP | 2.25 |
| LIVVTQSHLVIHNLREGMIWFIVP | 2.03 |
| LIVVTQSHLVIHNLEEGMIWFIVP | 2.13 |
| LIVVTQSHLVIHTLFEGMIWFIVP | 1.61 |
| LIVVTQSHLVIHILFEGMIWFIVP | 4.67 |
| LIVVTQSHLVIHALFEGMIWFIVP | 4.23 |

| Variant | protein stability index |
| --- | --- |
| LIVVTQSHLVIHMLFEGMIWFIVP | 4.66 |
| LIVVTQSHLVIHKLFEGMIWFIVP | 2.81 |
| LIVVTQSHLVIHRLFEGMIWFIVP | 2.08 |
| LIVVTQSHLVIHVLFEGMIWFIVP | 3.45 |
| LIVVTQSHLVIHPLFEGMIWFIVP | 3.48 |
| LIVVTQSHLVIHLLFEGMIWFIVP | 3.44 |
| LIVVTQSHLVIHCLFEGMIWFIVP | 3.03 |
| LIVVTQSHLVIHGLFEGMIWFIVP | 2.9 |
| LIVVTQSHLVIHELFEGMIWFIVP | 2.93 |
| LIVVTQSHLVIHDLFEGMIWFIVP | 2.63 |
| LIVVTQSHLVIHFLFEGMIWFIVP | 2.94 |
| LIVVTQSHLVIHSLFEGMIWFIVP | 3.02 |
| LIVVTQSHLVIHYLFEGMIWFIVP | 2.44 |
| LIVVTQSHLVIHHLFEGMIWFIVP | 1.83 |
| LIVVTQKHLVIHNLFEGMIWFIVP | 2.27 |
| LIVVTQNHLVIHNLFEGMIWFIVP | 2.81 |
| LIVVTQDHLVIHNLFEGMIWFIVP | 2.68 |
| LIVVTQTHLVIHNLFEGMIWFIVP | 4.59 |
| LIVVTQLHLVIHNLFEGMIWFIVP | 3.2 |
| LIVVTQHHLVIHNLFEGMIWFIVP | 2.31 |
| LIVVTQGHLVIHNLFEGMIWFIVP | 3.76 |
| LIVVTQRHLVIHNLFEGMIWFIVP | 4.35 |
| LIVVTQVHLVIHNLFEGMIWFIVP | 3.79 |
| LIVVTQIHLVIHNLFEGMIWFIVP | 2.54 |

| Variant | protein stability index |
| --- | --- |
| LIVVTQWHLVIHNLFEGMIWFIVP | 3.44 |
| LIVVTQPHLVIHNLFEGMIWFIVP | 4.35 |
| LIVVTQFHLVIHNLFEGMIWFIVP | 2.19 |
| LIVVTQYHLVIHNLFEGMIWFIVP | 3.16 |
| LIVVSQSHLVIHNLFEGMIWFIVP | 5.49 |
| LIVVCQSHLVIHNLFEGMIWFIVP | 4.62 |
| LIVVWQSHLVIHNLFEGMIWFIVP | 2.72 |
| LIVVKQSHLVIHNLFEGMIWFIVP | 2.97 |
| LIVVEQSHLVIHNLFEGMIWFIVP | 2.95 |
| LIVVHQSHLVIHNLFEGMIWFIVP | 3.62 |
| LIVVIQSHLVIHNLFEGMIWFIVP | 2.58 |
| LIVVAQSHLVIHNLFEGMIWFIVP | 2.62 |
| LIVVLQSHLVIHNLFEGMIWFIVP | 2.71 |
| LIVVQQSHLVIHNLFEGMIWFIVP | 3.1 |
| LIVVGQSHLVIHNLFEGMIWFIVP | 4.08 |
| LIVVYQSHLVIHNLFEGMIWFIVP | 2.99 |
| LIVVRQSHLVIHNLFEGMIWFIVP | 3.33 |
| LIVVVQSHLVIHNLFEGMIWFIVP | 2.65 |
| LIVVPQSHLVIHNLFEGMIWFIVP | 3.86 |
| LIVVMQSHLVIHNLFEGMIWFIVP | 3.04 |
